Test results taken from paper PMC9951844.

How the values were obtained:
[1] = target: SARS-CoV-2 Delta spike antigen of the SPR column (construct not stated) (SARS-CoV-2); experiment: SPR
[2] = target: SARS-CoV-2 Omicron BA.1 spike antigen of the SPR column (construct not stated) (SARS-CoV-2); experiment: SPR

B1: YB9-258 (antibody, V domains shown)
VH: EVQLVESGGGLIQPGGSLRLSCAASGLTVSSNYMHWVRQAPGKGLEWVSVLYAGGSAFYADSVKGRFTISRNNSKNTLYLQMNSLRAEDTAIYYCARGLGDYLDSWGQGTLVTVSS
VL: DIQMTQSPSSVSASVGDRVTITCRASQGIGSWLAWYQQKPGKAPQLLIYAASTLQSGVPPRFSGSGSGTDFTLTITSLQPEDFASYYCQQANSVLALTFGGGTKVEIK
- Kd [1]: 0.00391 nM
- Kd [2]: 6.06 nM
